Measured values: patent US20250066499A1 (SUNSHINE GUOJIAN PHARMACEUTICAL SHANGHAI, published 2025)

T1: human CD73-His protein (human, UniProt P21589 27-549)
T1 sequence: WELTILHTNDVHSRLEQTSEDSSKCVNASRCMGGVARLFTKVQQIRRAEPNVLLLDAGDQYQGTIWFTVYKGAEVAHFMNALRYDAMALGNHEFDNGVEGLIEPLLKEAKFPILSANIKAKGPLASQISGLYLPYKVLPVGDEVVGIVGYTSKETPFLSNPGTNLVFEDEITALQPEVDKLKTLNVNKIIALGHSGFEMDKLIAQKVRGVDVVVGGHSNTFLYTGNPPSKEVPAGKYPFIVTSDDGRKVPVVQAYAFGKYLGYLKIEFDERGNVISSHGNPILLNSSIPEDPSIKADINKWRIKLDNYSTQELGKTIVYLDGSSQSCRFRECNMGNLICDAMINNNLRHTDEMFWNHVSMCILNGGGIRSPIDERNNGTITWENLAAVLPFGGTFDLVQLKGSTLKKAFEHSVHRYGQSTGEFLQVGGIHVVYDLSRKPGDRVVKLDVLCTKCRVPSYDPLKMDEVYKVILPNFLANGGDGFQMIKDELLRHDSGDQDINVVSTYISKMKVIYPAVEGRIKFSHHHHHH

T2: mouse CD73 protein (mouse, UniProt Q61503 29-549, limits assumed)
T2 construct: Bought protein; also called CD73-mouse
T2 sequence (looked up): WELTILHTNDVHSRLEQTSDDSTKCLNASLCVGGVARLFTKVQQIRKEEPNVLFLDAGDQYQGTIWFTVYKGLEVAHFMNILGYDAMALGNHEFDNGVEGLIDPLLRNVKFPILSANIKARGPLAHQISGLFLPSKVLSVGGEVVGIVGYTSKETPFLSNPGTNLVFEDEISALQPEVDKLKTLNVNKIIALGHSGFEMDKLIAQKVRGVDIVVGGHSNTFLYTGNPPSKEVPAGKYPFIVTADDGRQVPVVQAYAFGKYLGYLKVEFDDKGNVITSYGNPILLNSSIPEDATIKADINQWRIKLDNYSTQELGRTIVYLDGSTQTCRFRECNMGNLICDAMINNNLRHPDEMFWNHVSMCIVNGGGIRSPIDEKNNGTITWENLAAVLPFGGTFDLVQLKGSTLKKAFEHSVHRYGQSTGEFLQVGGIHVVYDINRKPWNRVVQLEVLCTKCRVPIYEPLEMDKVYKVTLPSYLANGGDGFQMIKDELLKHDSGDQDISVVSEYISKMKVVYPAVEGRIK

T3: cynomolgus monkey CD73 protein (cynomolgus monkey, UniProt A0A2K5V5U7 27-547)
T3 construct: Bought protein; also called CD73-cynomolgus monkey
T3 sequence: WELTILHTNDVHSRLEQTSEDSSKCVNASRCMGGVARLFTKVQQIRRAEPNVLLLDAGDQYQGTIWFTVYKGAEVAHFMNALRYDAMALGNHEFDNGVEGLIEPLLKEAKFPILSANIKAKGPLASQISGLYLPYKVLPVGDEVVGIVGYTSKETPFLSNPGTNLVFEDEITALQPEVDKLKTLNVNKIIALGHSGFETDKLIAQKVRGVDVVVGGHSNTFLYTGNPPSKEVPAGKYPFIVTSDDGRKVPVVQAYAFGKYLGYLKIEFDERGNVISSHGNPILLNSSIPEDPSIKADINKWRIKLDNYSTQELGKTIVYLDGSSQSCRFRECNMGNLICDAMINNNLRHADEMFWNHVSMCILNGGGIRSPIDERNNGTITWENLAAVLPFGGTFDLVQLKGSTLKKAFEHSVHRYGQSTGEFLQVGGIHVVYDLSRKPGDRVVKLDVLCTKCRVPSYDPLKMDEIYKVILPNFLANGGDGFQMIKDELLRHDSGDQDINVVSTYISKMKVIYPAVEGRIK


How the values were obtained:
[1] = biological target: T1, human CD73-His protein; test: cell-based or functional assay
[2] = biological target: T2, mouse CD73 protein; test: SPR Biacore 8K, antibody captured on Protein A/G
[3] = biological target: T3, cynomolgus monkey CD73 protein; test: SPR Biacore 8K, antibody captured on Protein A/G, antigen in flow
[4] = biological target: T1, human CD73-His protein; test: SPR Biacore 8K, antibody captured on Protein A/G, CD73-his in flow, 1:1 model
Description: Antibodies to be tested were captured using a chip covalently coupled with Protein A/G, with the following operational parameters: antibody concentration of 2 μg/mL, contact time of 75 seconds, flow rate of 10 μL/min, and regeneration contact time of 30 seconds. The CD73-his antigen was diluted in HBS-EP pH 7.4 buffer, with the highest concentration being 100 nM, and diluted in a 2-fold gradient down to 0.78 nM. Duplicate wells and a 0 concentration point were set up. 6M guanidine hydrochloride solution was used as the regeneration buffer. Using the Biacore 8K, the samples were injected with the following parameters: binding time of 180 seconds, dissociation time of 900 seconds, flow rate of 30 μL/min, and regeneration contact time of 30 seconds. After the procedure was completed, the Biacore 8K Evaluation Software was used to analyze the data according to the “1:1 binding kinetics model,” yielding the binding kinetics parameters of each antibody to CD73.

Binder	IC50 (nM), inhibition of enzyme activity of soluble CD73-His (AMP/ATP, Cell Titer-Glo) [1] [nM]	binding result [2]	Kd [3] [nM]	koff [3] [s⁻¹]	kon [3] [M⁻¹ s⁻¹]	Kd [4] [nM]	koff [4] [s⁻¹]	kon [4] [M⁻¹ s⁻¹]
56B10-HuV31 (antibody, human IgG4, V domains shown, Humanized) VH: QVQLQQSGAEVKKPGASVKVSCKASGYTFTRYYIYWVRQRPGQGLEWIGWIYPGNFNTKYNEKFKGRATLTADTSASTAYMELSSLTSEDTAVYYCARDVYDYAGFAYWGQGTLVTVSS VL: DIQLTQSPSFLSASVGDRVTITCKASQGVATAVAWYQQKPGQSPKLLIYWASTRHTGVPDRFSGSGSGTEFTLTISSLQPEDFATYYCQQYSSYPWTFGQGTKVEIK	3.66	no binding	7.13	0.000712	99900	1.89	0.000376	199000
48A11-HuV33 (antibody, human IgG4, V domains shown, Humanized) VH: QVQLVQSGAEVKKPGASVKVSCKASGYTFTSYWMHWVRQAPGQGLEWIGEINPSIGRTNYNEKFKSRVTLTRDTSTSTAYMELSSLRSEDTAVYYCARRVYGTMDYWGQGTLVTVSS VL: DIQMTQSPSSLSASVGDRVTITCKASQDINSYLSWFQQKPGKSPKLLIYRANIWVDGVPSRFSGSGSGQDYTFTISSLQPEDIATYYCLQYDELYTFGQGTKVEIK	4.27	no binding	12.1	0.000883	72800	2.26	0.000381	168000
